Reference: patent US5864028, “Degradation resistant mRNA derivatives linked to TNF-α ribozymes” (Gene Shears Pty. Limited)

Assays:
[1] = target: GAPDH (37 kDa ribozyme-binding protein purified from PBMN cells) (Homo sapiens, UniProt P04406 P04406:2-335); experiment: ribozyme cleavage rate enhancement; 100 ng/ul GAPDH, 2 mM MgCl2, 37 C; settings: tags: none; Mono Q purified from PBMN cytoplasmic extract; chain copies: 4 (stated homotetramer); label: 32P internal; hammerhead ribozyme
Method: FIG. 29(A) Ribozymes (2 nM) and the [γ^32P]-labelled 20-mer target RNA (50 nM) were incubated at 37° C. in the presence or absence of different concentrations of purified protein (Filled rectangle) or lactate dehydrogenase (open rectangle) as unspecific protein in a reaction buffer containing 50 mM Tris-HCl pH 7.5 and 1 mM MgCl_2. […] The radioactivity contained in each 5' end was quantified by Phospho-Imager. […] Appropriate time (min) is indicated on the top of each lane. The radioactivity containing in each 5' end-labelled product was quantified and expressed as percentage of radioactivity present in the substrate FIG. 29(D).
Standard cleavage reactions were carried out at 37° C. in buffer containing 50 mM Tris-HCl, pH 7.5 and 10 mM MgCl_2. Multiple turnover cleavage reactions in the presence or absence of GAPDH were performed with 5 mM […], unless otherwise indicated. Ribozyme and substrate were heated separately at 90° C. for 1 min and cooled at 4° C. After this step both RNAs were mixed in cleavage buffer containing 0.2 U RNasin and then divided into 3 samples. Following addition of GAPDH or lactate dehydrogenase (LD) as an unspecific protein to one of the samples, reactions were initiated by the addition of MgCl_2. At specified times, 10 μl aliquots were removed and the reaction was stopped by the addition of 20 mM EDTA and phenol.

[2] = target: T1, GAPDH (commercial, rabbit muscle) (Oryctolagus cuniculus, UniProt P46406 P46406:1-333); experiment: cleavage enhancement similar to IL-2-Rz2; settings: tags: commercial; chain copies: 4 (stated homotetramer); hammerhead ribozyme with 5'-3' end duplex
T1 sequence (P46406 whole entry, one chain of several): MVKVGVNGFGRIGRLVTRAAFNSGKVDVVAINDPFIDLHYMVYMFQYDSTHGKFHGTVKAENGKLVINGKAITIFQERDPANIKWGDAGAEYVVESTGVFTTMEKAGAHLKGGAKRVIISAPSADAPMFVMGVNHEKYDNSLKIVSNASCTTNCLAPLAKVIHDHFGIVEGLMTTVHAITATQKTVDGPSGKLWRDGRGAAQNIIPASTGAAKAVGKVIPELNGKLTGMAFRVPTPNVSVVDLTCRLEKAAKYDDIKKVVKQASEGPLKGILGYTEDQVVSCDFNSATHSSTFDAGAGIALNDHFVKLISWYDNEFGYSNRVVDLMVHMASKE

[3] = target: T1, GAPDH (commercial, rabbit muscle); experiment: ribozyme cleavage rate enhancement; none with LD; settings: tags: commercial; chain copies: 4 (stated homotetramer); hammerhead ribozyme with 5'-3' end duplex
Method: Autoradiogram of denaturing gels of multiple turnover reactions in the absence FIG. 32(A) or in the presence of GAPDH FIG. 32(B) as well as in the presence of LD as unspecific protein FIG. 32(C). 5 nM of the ribozyme and 50 nM of […] 15-mer substrate were incubated in a reaction mixture containing 50 mM Tris-HCl pH 7.5 and 5 mM MgCl_2 at 37° C. in the absence or presence of proteins (150 ng/μl) and then processed as described below. FIG. 32(D) Quantification of the data shown in A, B and C by Phospho-Imager. Appropriate time (min) is indicated on the top of each lane. FIG. 32(E) Control experiments. A Phospho-Imager printout is shown following separation of the products by 15% PAGE gel. No cleavage activity was seen upon addition of GAPDH in absence of Mg^++ (lane 4). The cleavage rate of the ribozyme (lane 2) is enhanced by the addition of GAPDH (Lane 3). This cleavage enhancement is shut down by phenol treatment of the GAPDH preparation prior to addition (lane 5). Arrows indicated the cleavage products.
Standard cleavage reactions were carried out at 37° C. in buffer containing 50 mM Tris-HCl, pH 7.5 and 10 mM MgCl_2. Multiple turnover cleavage reactions in the presence or absence of GAPDH were performed with 5 mM […], unless otherwise indicated. Ribozyme and substrate were heated separately at 90° C. for 1 min and cooled at 4° C. […]

Sequence of GAPDH (37 kDa ribozyme-binding protein purified from PBMN cells) (P04406 2-335, one chain of several): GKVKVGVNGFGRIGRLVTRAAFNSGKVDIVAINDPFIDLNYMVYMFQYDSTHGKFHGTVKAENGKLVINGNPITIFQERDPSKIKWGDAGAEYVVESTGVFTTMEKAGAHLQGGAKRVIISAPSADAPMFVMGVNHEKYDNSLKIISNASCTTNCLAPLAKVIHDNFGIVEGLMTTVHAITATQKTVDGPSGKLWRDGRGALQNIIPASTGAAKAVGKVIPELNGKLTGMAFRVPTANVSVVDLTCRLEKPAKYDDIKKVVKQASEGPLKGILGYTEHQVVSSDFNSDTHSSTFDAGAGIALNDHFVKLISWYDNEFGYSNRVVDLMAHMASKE

B1: TNF-alpha-Rz (ssRNA)
RNA: GUAAGAUGAUCUCUGAUGAGUCCGUGAGGACGAAACUGCCUGGUACUGAAUU
[1]
  activity: 3.8 fold

B2: IL-2-Rz3 (ssRNA)
RNA: GACUUAGUGCAAUGCAACUGAUGAGUCCGUGAGGACGAAACAGGAGUUGCGAAUU
[2]
  activity: ~15 fold

## GGUGCAAUGCAACUGAUGAGUCCGUGAGGACGAAACAGGAGUUGCGAAUU (ssRNA) [IL-2-Rz2]
[3]
  activity: 15 fold
